In paper PMC11444262, “Direct targeting of host microtubule and actin cytoskeletons by a chlamydial pathogenic effector protein” (Journal of Cell Science, 2024):

Biological target: Taxol-stabilized microtubules (UniProt P02550 1-451)
Test: co-sedimentation; equilibrium binding of 100 nM GST–CPn0572^595-755 with increasing amounts of Taxol-stabilized MTs; apparent Kd
Settings: both partners purified

Chain of Taxol-stabilized microtubules (P02550 whole entry, chain 1 of 2): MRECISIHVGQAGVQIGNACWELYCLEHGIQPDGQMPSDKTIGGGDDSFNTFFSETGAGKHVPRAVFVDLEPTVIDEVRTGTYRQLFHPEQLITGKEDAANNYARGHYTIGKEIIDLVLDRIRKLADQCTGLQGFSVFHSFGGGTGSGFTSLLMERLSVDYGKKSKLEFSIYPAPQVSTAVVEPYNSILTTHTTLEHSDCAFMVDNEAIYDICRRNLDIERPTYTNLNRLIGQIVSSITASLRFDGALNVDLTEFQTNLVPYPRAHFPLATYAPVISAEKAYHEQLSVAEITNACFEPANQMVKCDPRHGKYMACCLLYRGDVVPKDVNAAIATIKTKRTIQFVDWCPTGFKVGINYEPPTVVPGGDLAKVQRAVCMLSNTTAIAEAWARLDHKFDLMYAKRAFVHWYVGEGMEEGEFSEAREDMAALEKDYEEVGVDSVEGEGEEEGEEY
Chain of Taxol-stabilized microtubules (P02554 whole entry, chain 2 of 2, further chain): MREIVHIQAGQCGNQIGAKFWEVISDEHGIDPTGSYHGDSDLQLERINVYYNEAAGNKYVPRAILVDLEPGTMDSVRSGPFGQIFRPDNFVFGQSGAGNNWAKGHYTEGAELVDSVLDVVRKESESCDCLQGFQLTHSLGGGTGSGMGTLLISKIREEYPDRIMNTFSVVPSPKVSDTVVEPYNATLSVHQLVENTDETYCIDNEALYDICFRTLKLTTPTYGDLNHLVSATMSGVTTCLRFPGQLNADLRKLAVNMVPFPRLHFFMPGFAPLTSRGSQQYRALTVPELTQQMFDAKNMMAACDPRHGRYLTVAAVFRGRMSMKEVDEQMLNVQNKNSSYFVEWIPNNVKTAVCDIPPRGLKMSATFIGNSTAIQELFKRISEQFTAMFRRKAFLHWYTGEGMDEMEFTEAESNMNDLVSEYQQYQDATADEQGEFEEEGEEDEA

B1: GST–CPn0572^595-755 (domain or fragment, Chlamydia pneumoniae (Cpn GiD), UniProt Q9Z7Y1 595-755, looked up)
chain: VATTITPQARTASTSTTSIGTGTESTSTTSTGTGTGSVSTQSTGVGTPTTTTRSTGTSATTTTSSASTQTPQAPLPSGTRHVATISLVRNAAGRSIVLQQGGRSQSFPIPPSGTGTQNMGAQLWAAASQVASTLGQVVNQAATAGSQPSSRRSSPTSPRRK
notes: Cloned into a modified pGEX-5X-1 in which the factor Xa site is replaced by a TEV protease site; source: E. coli Rosetta (DE3), purified (glutathione agarose beads)
Question: With B1 as the binder, how does the Kd read?
Answer: 70 nM
